# Measured values: patent publication US20210355194A1 (TWIST BIOSCIENCE, published 2021)
# B1: variant 6-47 (Fc fusion)
# VHH: EVQLVESGGGLVQPGGSLRLSCAASGRTFSMHAMGWFRQAPGKERELVASITYGGNINYADSVKGRFTISADNSKNTAYLQMNSLKPEDTAVYYCAKEGYYDSTGYRTYFQQWGQGTLVTVSS
# B2: variant 6-32 (Fc fusion)
# VHH: EVQLVESGGGLVQPGGSLRLSCAASGFTLDYYDMGWFRQAPGKEREFVALISWSGGSTYYADSVKGRFTISADNSKNTAYLQMNSLKPEDTAVYYCATDFYGWGTRERDAFDIWGQGTLVTVSS
# B3: variant 6-41 (Fc fusion)
# VHH: EVQLVESGGGLVQPGGSLRLSCAASGFTFSTSWMGWFRQAPGKEREFVASINEYGGRNYADSVKGRFTISADNSKNTAYLQMNSLKPEDTAVYYCAGLHYYYDSSGYNPTEYYGMDVWGQGTLVTVSS
# B4: variant 6-5 (Fc fusion)
# VHH: EVQLVESGGGLVQPGGSLRLSCAASGRTFTMGWFRQAPGKEREFVASTNSAGSTNYADSVNGRFTISADNSKNTAYLQMNSLKPEDTAVYYCTTVDQYFDYWGQGTLVTVSS
# B5: variant 6-19 (Fc fusion)
# VHH: EVQLVESGGGLVQPGGSLRLSCAASGSILSIAVMGWFRQAPGKEREFVAAISPSAVTTYYADSVKGRFTISADNSKNTAYLQMNSLKPEDTAVYYCAIGYYDSSGYFDYWGQGTLVTVSS
# B6: variant 6-46 (Fc fusion)
# VHH: EVQLVESGGGLVQPGGSLRLSCAASGLTFSAMGWFRQAPGKEREFVALIRRDGSTIYADSVKGRFTISADNSKNTAYLQMNSLKPEDTAVYYCAALGILFGYDAFDIWGQGTLVTVSS
# B7: variant 6-16 (Fc fusion)
# VHH: EVQLVESGGGLVQPGGSLRLSCAASGFTFDDAAMGWFRQAPGKEREFVAHISWSGGSTYYADSVKGRFTISADNSKNTAYLQMNSLKPEDTAVYYCATFGATVTATNDAFDIWGQGTLVTVSS
# B8: variant 6-18 (Fc fusion)
# VHH: EVQLVESGGGLVQPGGSLRLSCAASGLTFRNYAMGWFRQAPGKEREFIAGMMWSGGTTTYADSVKGRFTISADNSKNTAYLQMNSLKPEDTAVYYCAREGYYYDSSGYLNYFDYWGQGTLVTVSS
# B9: variant 6-42 (Fc fusion)
# VHH: EVQLVESGGGLVQPGGSLRLSCAASGDTYGSYWMGWFRQAPGKEREFVAVITSGGSTNYADSVKGRFTISADNSKNTAYLQMNSLKPEDTAVYYCTHVQNSYYYAMDVWGQGTLVTVSS
# B10: variant 6-24 (Fc fusion)
# VHH: EVQLVESGGGLVQPGGSLRLSCAASGFTLDYYAMGWFRQAPGKEREFVAAINWSGDNTHYADSVKGRFTISADNSKNTAYLQMNSLKPEDTAVYYCARAPFYCTTTKCQDNYYYMDVWGQGTLVTVSS
# B11: variant 6-9 (Fc fusion)
# VHH: EVQLVESGGGLVQPGGSLRLSCAASGFTFDYYAMGWFRQAPGKEREFVSAIDSEGRTSYADSVKGRFTISADNSKNTAYLQMNSLKPEDTAVYYCARWGPFDIWGQGTLVTVSS
# B12: variant 6-23 (Fc fusion)
# VHH: EVQLVESGGGLVQPGGSLRLSCAASGSIFSMNTMGWFRQAPGKEREFVALINRSGGGINYADSVKGRFTISADNSKNTAYLQMNSLKPEDTAVYYCVRLSSGYYDFDYWGQGTLVTVSS
# B13: variant 6-43 (Fc fusion)
# VHH: EVQLVESGGGLVQPGGSLRLSCAASGRTFSSYAMMGWFRQAPGKEREFVASVNWDASQINYADSVKGRFTISADNSKNTAYLQMNSLKPEDTAVYYCTTLGAVYFDSSGYHDYFDYWGQGTLVTVSS
# B14: variant 6-13 (Fc fusion)
# VHH: EVQLVESGGGLVQPGGSLRLSCAASGLTFNDYAMGWFRQAPGKEREFVAHIPRSTYSPYYADSVKGRFTISADNSKNTAYLQMNSLKPEDTAVYYCAFLVGPQGVDHGAFDVWGQGTLVTVSS
# B15: variant 6-37 (Fc fusion)
# VHH: EVQLVESGGGLVQPGGSLRLSCAASGHTFSTSWMGWFRQAPGKEREFVATINSLGGTNYADSVKGRFTISADNSKNTAYLQMNSLKPEDTAVYYCARVSSGDYGMDVWGQGTLVTVSS
# B16: variant 6-12 (Fc fusion)
# VHH: EVQLVESGGGLVQPGGSLRLSCAASGSTYTTYSMGWFRQAPGKEREFVAAISGSENVTSYADSVKGRFTISADNSKNTAYLQMNSLKPEDTAVYYCARVDDYMDVWGQGTLVTVSS
# B17: variant 6-33 (Fc fusion)
# VHH: EVQLVESGGGLVQPGGSLRLSCAASGTFQRINHMGWFRQAPGKEREFVATINTGGQPNYADSVKGRFTISADNSKNTAYLQMNSLKPEDTAVYYCASLIAAQDYYFDYWGQGTLVTVSS
# B18: variant 6-10 (Fc fusion)
# VHH: EVQLVESGGGLVQPGGSLRLSCAASGSIASIHAMGWFRQAPGKEREFVAAISRSGGFGSYADSVKGRFTISADNSKNTAYLQMNSLKPEDTAVYYCARDDKYYDSSGYPAYFQHWGQGTLVTVSS
# B19: variant 6-49 (Fc fusion)
# VHH: EVQLVESGGGLVQPGGSLRLSCAASGSTVLINAMGWFRQAPGKEREFVAAISWSPGRTDYADSVKGRFTISADNSKNTAYLQMNSLKPEDTAVYYCARDCSGGSCYSGDYWGQGTLVTVSS
# B20: variant 6-6 (Fc fusion)
# VHH: EVQLVESGGGLVQPGGSLRLSCAASGTTLDYYAMGWFRQAPGKERELVAAISWSGGSTAYADSVKGRFTISADNSKNTAYLQMNSLKPEDTAVYYCAREDYYDSSGYSWGQGTLVTVSS
# B21: variant 6-36 (Fc fusion)
# VHH: EVQLVESGGGLVQPGGSLRLSCAASGFDFSVSWMGWFRQAPGKEREFVTAITWSGDSTNYADSVKGRFTISADNSKNTAYLQMNSLKPEDTAVYYCASLLHTGPSGGNYFDYWGQGTLVTVSS
# B22: variant 6-17 (Fc fusion)
# VHH: EVQLVESGGGLVQPGGSLRLSCAASGNTGSTGYMGWFRQAPGKEREMVAGVINDGSTVYADSVKGRFTISADNSKNTAYLQMNSLKPEDTAVYYCARLATSHQDGTGYLFDYWGQGTLVTVSS
# B23: variant 6-14 (Fc fusion)
# VHH: EVQLVESGGGLVQPGGSLRLSCAASGITFRFKAMGWFRQAPGKEREFVAAVSWDGRNTYYADSVKGRFTISADNSKNTAYLQMNSLKPEDTAVYYCASDYYYMDVWGQGTLVTVSS
# B24: variant 6-22 (Fc fusion)
# VHH: EVQLVESGGGLVQPGGSLRLSCAASGRTFSEVVMGWFRQAPGKEREFVATIHSSGSTSYADSVKGRFTISADNSKNTAYLQMNSLKPEDTAVYYCVRVTSDYSMDSWGQGTLVTVSS
# B25: variant 6-28 (Fc fusion)
# VHH: EVQLVESGGGLVQPGGSLRLSCAASGDTYGSYWMGWFRQAPGKEREFVATITSDDRTNYADSVKGRFTISADNSKNTAYLQMNSLKPEDTAVYYCARVTSSLSGMDVWGQGTLVTVSS
# B26: variant 6-45 (Fc fusion)
# VHH: EVQLVESGGGLVQPGGSLRLSCAASGNMFSINAMGWFRQAPGKEREFVTLISWSSGRTSYADSVKGRFTISADNSKNTAYLQMNSLKPEDTAVYYCASLGYCSGGSCFDYWGQGTLVTVSS
# B27: variant 6-35 (Fc fusion)
# VHH: EVQLVESGGGLVQPGGSLRLSCAASGFTLAYYAMGWFRQAPGKEREFVAAISMSGDDTIYADSVKGRFTISADNSKNTAYLQMNSLKPEDTAVYYCARELGYSSTVWPWGQGTLVTVSS
# B28: variant 6-31 (Fc fusion)
# VHH: EVQLVESGGGLVQPGGSLRLSCAASGDTFSANRMGWFRQAPGKEREFVASITWSSANTYYADSVKGRFTISADNSKNTAYLQMNSLKPEDTAVYYCATFNWNDEGFDFWGQGTLVTVSS
# B29: variant 6-25 (Fc fusion)
# VHH: EVQLVESGGGLVQPGGSLRLSCAASGLTFGTYTMGWFRQAPGKEREFVAAISRFGSTYYADSVKGRFTISADNSKNTAYLQMNSLKPEDTAVYYCARGGDYDFWSVDYMDVWGQGTLVTVSS
# B30: variant 6-40 (Fc fusion)
# VHH: EVQLVESGGGLVQPGGSLRLSCAASGFTFSDYWMGWFRQAPGKERELVARVWWNGGSAYYADSVKGRFTISADNSKNTAYLQMNSLKPEDTAVYYCAREVLRQQVVLDYWGQGTLVTVSS
# B31: variant 6-44 (Fc fusion)
# VHH: EVQLVESGGGLVQPGGSLRLSCAASGGTFGVYHMGWFRQAPGKEREFIGRITWTDGSTYYADSVKGRFTISADNSKNTAYLQMNSLKPEDTAVYYCFGLLEVYDMTFDYWGQGTLVTVSS
# B32: variant 6-34 (Fc fusion)
# VHH: EVQLVESGGGLVQPGGSLRLSCAASGSAFRSNAMGWFRQAPGKEREFVAHISWSSKSTYYADSVKGRFTISADNSKNTAYLQMNSLKPEDTAVYYCATYCSSTSCFDYWGQGTLVTVSS
# B33: variant 6-39 (Fc fusion)
# VHH: EVQLVESGGGLVQPGGSLRLSCAASGFTFSPSWMGWFRQAPGKEREFVAAISWSGGSTAYADSVKGRFTISADNSKNTAYLQMNSLKPEDTAVYYCHGLGEGDPYGDYEGYFDLWGQGTLVTVSS
# B34: variant 6-38 (Fc fusion)
# VHH: EVQLVESGGGLVQPGGSLRLSCAASGNTFSGGFMGWFRQAPGKEREFVAVISSLSSKSYADSVKGRFTISADNSKNTAYLQMNSLKPEDTAVYYCAKVDSGYDYWGQGTLVTVSS
# Biological target: T1, Acro SARS-CoV-2 (COVID-19) S1 protein (SARS-CoV-2, UniProt P0DTC2 16-685)
# T1 construct: also called SARS-CoV-2 S1
# Experiment: SPR
row,Binder,Kd [µM]
1,B1,0.0439
2,B2,0.0272
3,B3,0.0515
4,B4,0.0249
5,B5,0.071
6,B6,0.0181
7,B7,0.0521
8,B8,0.0301
9,B9,0.0101
10,B10,0.0299
11,B11,0.0185
12,B12,0.0593
13,B13,0.0179
14,B14,0.0253
15,B15,0.0225
16,B16,0.0502
17,B17,0.0764

row,Binder,Kd [µM]
1,B18,0.0297
2,B19,0.0582
3,B20,0.0064
4,B21,0.0321
5,B22,0.0652
6,B23,0.135
7,B24,0.0256
8,B25,0.0541
9,B26,0.0175
10,B27,0.251
11,B28,0.0396
12,B29,0.248
13,B30,0.0443
14,B31,0.0082
15,B32,0.0213
16,B33,0.0113
17,B34,0.0266
